Test [1] addresses SARS-CoV-2 BA.2.86 Hexapro S ectodomain (SARS-CoV-2) (UniProt P0DTC2). Description: cryo-EM structure.
Test [2] has as its target SARS-CoV-2 XBB.1.5 + L455S RBD (SARS-CoV-2) (UniProt P0DTC2). Put plainly: SPR. In general terms: SPR reads the build-up and loss of mass on a sensor chip optically.
The target of test [3] is SARS-CoV-2 XBB.1.5 + L455F RBD (SARS-CoV-2) (UniProt P0DTC2). Description: SPR.

One may read the stoichiometry N as a count of units in the complex or per binding partner. One may read the Kd as the concentration at which binding is half-saturated. In general, koff refers to the rate constant with which the complex falls apart. As a reminder, the kon is the rate constant with which the complex forms.

In turn, “SARS-CoV-2 BA.2.86 Hexapro S ectodomain (from UniProt P0DTC2 14-1204) (domain or fragment)” registered a stoichiometry N in test [1] of 3.
For VIR-7229 Fab fragment, in test [2], the Kd stood at 0.199 nM, the koff turned out to be 0.000106 s⁻¹ and the kon amounted to 543000 M⁻¹ s⁻¹. Further, in test [3], the equilibrium dissociation constant (Kd) was found to be 0.193 nM, the koff was 0.000113 s⁻¹ and the kon was determined as 604000 M⁻¹ s⁻¹.

Source of the values: paper PMC11645210.
